Columns and labels:
Assay in all cases: flow cytometry, mutant on cells, IgG
human CD33 W22Q = human CD33 W22Q (human, UniProt P20138 18-364)
Procedure: (§1) An alanine scan on human CD33 was performed to the determine the residues on CD33 that are involved in binding to the antibodies investigated. […] Briefly, a mutation library of CD33 was created by high-throughput, site-directed mutagenesis. Each residue was individually mutated to alanine, with alanine codons mutated to serine. The mutant library was arrayed in 384-well microplates and transiently transfected into HEK293-T. Following transfection, cells were incubated with the indicated antibodies (IgG or Fab) at concentrations pre-determined using an independent immunofluorescence titration curve on wild type CD33. […] Binding of each antibody to each mutant clone was determined in duplicates. For each point, background fluorescence was subtracted from the raw data, which were then normalized to antibody reactivity with wild type CD33.
(§2) Antibodies were screened for binding to the human CD33 variants in IgG format. […] For each mutation, background fluorescence was subtracted from the raw data, which were then normalized to antibody reactivity with wild-type CD33.

human CD33 P46S = human CD33 P46S (human, UniProt P20138 18-364)
Procedure: as §1, §2

human CD33 F43L = human CD33 F43L (human, UniProt P20138 18-364)
Procedure: as §1, §2

human CD33 P46D = human CD33 P46D (human, UniProt P20138 18-364)
Procedure: as §1, §2

human CD33 T42K = human CD33 T42K (human, UniProt P20138 18-364)
Procedure: as §1, §2

human CD33 N20D = human CD33 N20D (human, UniProt P20138 18-364)
Procedure: as §1, §2

human CD33 P46I = human CD33 P46I (human, UniProt P20138 18-364)
Chain of human CD33 P46I (P20138 18-364 P46I limits assumed): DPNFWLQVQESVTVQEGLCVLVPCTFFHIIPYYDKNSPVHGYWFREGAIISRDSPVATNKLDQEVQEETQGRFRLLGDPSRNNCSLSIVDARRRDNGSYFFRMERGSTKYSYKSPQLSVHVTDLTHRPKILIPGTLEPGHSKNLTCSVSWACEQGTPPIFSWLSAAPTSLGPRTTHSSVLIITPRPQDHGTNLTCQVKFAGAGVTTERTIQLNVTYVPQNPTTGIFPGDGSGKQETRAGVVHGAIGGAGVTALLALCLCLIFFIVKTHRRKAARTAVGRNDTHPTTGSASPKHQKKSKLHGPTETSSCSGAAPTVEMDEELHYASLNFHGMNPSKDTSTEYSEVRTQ
Procedure: as §1, §2

human CD33 Q24N = human CD33 Q24N (human, UniProt P20138 18-364)
Chain of human CD33 Q24N (P20138 18-364 Q24N limits assumed): as the sequence (P20138 18-364 P46I limits assumed) above, with Q7N, I29P counted along it
Procedure: as §1, §2

human CD33 N20W = human CD33 N20W (human, UniProt P20138 18-364)
Procedure: as §1, §2

human CD33 P19K = human CD33 P19K (human, UniProt P20138 18-364)
Procedure: as §1, §2

human CD33 I47G = human CD33 I47G (human, UniProt P20138 18-364)
Procedure: as §1, §2

human CD33 P46Y = human CD33 P46Y (human, UniProt P20138 18-364)
Procedure: as §1, §2

human CD33 F44P = human CD33 F44P (human, UniProt P20138 18-364)
Procedure: as §1, §2

human CD33 F21L = human CD33 F21L (human, UniProt P20138 18-364)
Procedure: as §1, §2

human CD33 P19D = human CD33 P19D (human, UniProt P20138 18-364)
Chain of human CD33 P19D (P20138 18-364 P19D limits assumed): as the sequence (P20138 18-364 P46I limits assumed) above, with P2D, I29P counted along it
Procedure: as §1, §2

human CD33 Q24E = human CD33 Q24E (human, UniProt P20138 18-364)
Procedure: as §1, §2

human CD33 H45Y = human CD33 H45Y (human, UniProt P20138 18-364)
Chain of human CD33 H45Y (P20138 18-364 H45Y limits assumed): as the sequence (P20138 18-364 P46I limits assumed) above, with H28Y, I29P counted along it
Procedure: as §1, §2

human CD33 T42P = human CD33 T42P (human, UniProt P20138 18-364)
Procedure: as §1, §2

human CD33 N20L = human CD33 N20L (human, UniProt P20138 18-364)
Procedure: as §1, §2

human CD33 F44S = human CD33 F44S (human, UniProt P20138 18-364)
Procedure: as §1, §2

human CD33 W22Y = human CD33 W22Y (human, UniProt P20138 18-364)
Procedure: as §1, §2

human CD33 Q24S = human CD33 Q24S (human, UniProt P20138 18-364)
Procedure: as §1, §2

human CD33 F44H = human CD33 F44H (human, UniProt P20138 18-364)
Procedure: as §1, §2

human CD33 Q24I = human CD33 Q24I (human, UniProt P20138 18-364)
Chain of human CD33 Q24I (P20138 18-364 Q24I limits assumed): as the sequence (P20138 18-364 P46I limits assumed) above, with Q7I, I29P counted along it
Procedure: as §1, §2

human CD33 N20Q = human CD33 N20Q (human, UniProt P20138 18-364)
Procedure: as §1, §2

human CD33 P19L = human CD33 P19L (human, UniProt P20138 18-364)
Chain of human CD33 P19L (P20138 18-364 P19L limits assumed): as the sequence (P20138 18-364 P46I limits assumed) above, with P2L, I29P counted along it
Procedure: as §1, §2

human CD33 P46L = human CD33 P46L (human, UniProt P20138 18-364)
Procedure: as §1, §2

human CD33 F21H = human CD33 F21H (human, UniProt P20138 18-364)
Procedure: as §1, §2

human CD33 W22E = human CD33 W22E (human, UniProt P20138 18-364)
Chain of human CD33 W22E (P20138 18-364 W22E limits assumed): as the sequence (P20138 18-364 P46I limits assumed) above, with W5E, I29P counted along it
Procedure: as §1, §2

human CD33 N20P = human CD33 N20P (human, UniProt P20138 18-364)
Chain of human CD33 N20P (P20138 18-364 N20P limits assumed): as the sequence (P20138 18-364 P46I limits assumed) above, with N3P, I29P counted along it
Procedure: as §1, §2

human CD33 W22L = human CD33 W22L (human, UniProt P20138 18-364)
Chain of human CD33 W22L (P20138 18-364 W22L limits assumed): as the sequence (P20138 18-364 P46I limits assumed) above, with W5L, I29P counted along it
Procedure: as §1, §2

human CD33 W22P = human CD33 W22P (human, UniProt P20138 18-364)
Procedure: as §1, §2

human CD33 I47T = human CD33 I47T (human, UniProt P20138 18-364)
Procedure: as §1, §2

human CD33 F44T = human CD33 F44T (human, UniProt P20138 18-364)
Chain of human CD33 F44T (P20138 18-364 F44T limits assumed): as the sequence (P20138 18-364 P46I limits assumed) above, with F27T, I29P counted along it
Procedure: as §1, §2

human CD33 N20E = human CD33 N20E (human, UniProt P20138 18-364)
Procedure: as §1, §2

human CD33 P46F = human CD33 P46F (human, UniProt P20138 18-364)
Chain of human CD33 P46F (P20138 18-364 P46F limits assumed): as the sequence (P20138 18-364 P46I limits assumed) above, with I29F counted along it
Procedure: as §1, §2

human CD33 F21S = human CD33 F21S (human, UniProt P20138 18-364)
Procedure: as §1, §2

Chain of human CD33 P46S (P20138 18-364 P46S limits assumed): as the sequence (P20138 18-364 P46I limits assumed) above, with I29S counted along it
Chain of human CD33 N20D (P20138 18-364 N20D limits assumed): as the sequence (P20138 18-364 P46I limits assumed) above, with N3D, I29P counted along it
Chain of human CD33 P46D (P20138 18-364 P46D limits assumed): as the sequence (P20138 18-364 P46I limits assumed) above, with I29D counted along it

Mean % WT Binding (human CD33 W22Q) [% WT binding] | Mean % WT Binding (human CD33 P46S) [% WT binding] | Mean % WT Binding (human CD33 F43L) [% WT binding] | Mean % WT Binding (human CD33 P46D) [% WT binding] | Mean % WT Binding (human CD33 T42K) [% WT binding] | Mean % WT Binding (human CD33 N20D) [% WT binding] | Mean % WT Binding (human CD33 P46I) [% WT binding] | Mean % WT Binding (human CD33 Q24N) [% WT binding] | Mean % WT Binding (human CD33 N20W) [% WT binding] | Mean % WT Binding (human CD33 P19K) [% WT binding] | Mean % WT Binding (human CD33 I47G) [% WT binding] | Mean % WT Binding (human CD33 P46Y) [% WT binding] | Mean % WT Binding (human CD33 F44P) [% WT binding] | Mean % WT Binding (human CD33 F21L) [% WT binding] | Mean % WT Binding (human CD33 P19D) [% WT binding] | Mean % WT Binding (human CD33 Q24E) [% WT binding] | Mean % WT Binding (human CD33 H45Y) [% WT binding] | Mean % WT Binding (human CD33 T42P) [% WT binding] | Mean % WT Binding (human CD33 N20L) [% WT binding] | Mean % WT Binding (human CD33 F44S) [% WT binding] | also measured | Binder
108 | 102 | 45.8 | 100 | 95.5 | 109 | 55.8 | 117 | 61.2 | 115 | 3.7 | 60.1 | 0.4 | 120 | 99.3 | 63.7 | 80.7 | 12.7 | 95.8 | 0.8 | Mean % WT Binding (human CD33 W22Y): 107 % WT binding; Mean % WT Binding (human CD33 Q24S): 108 % WT binding; Mean % WT Binding (human CD33 F44H): 0.4 % WT binding; Mean % WT Binding (human CD33 Q24I): 96.8 % WT binding; Mean % WT Binding (human CD33 N20Q): 125 % WT binding; Mean % WT Binding (human CD33 P19L): 111 % WT binding; Mean % WT Binding (human CD33 P46L): 93.8 % WT binding; Mean % WT Binding (human CD33 F21H): 117 % WT binding; Mean % WT Binding (human CD33 W22E): 107 % WT binding; Mean % WT Binding (human CD33 N20P): 98.5 % WT binding; Mean % WT Binding (human CD33 W22L): 110 % WT binding; Mean % WT Binding (human CD33 W22P): 136 % WT binding; Mean % WT Binding (human CD33 I47T): 1.8 % WT binding; Mean % WT Binding (human CD33 F44T): 0.8 % WT binding; Mean % WT Binding (human CD33 N20E): 120 % WT binding; Mean % WT Binding (human CD33 P46F): 80.9 % WT binding; Mean % WT Binding (human CD33 F21S): 115 % WT binding | Refmab #2 (antibody, human IgG1, V domains shown, Tested in IgG format; human IgG1 Fc silent (PG-LALA)) VH: QVQLVQSGAEVKKPGSSVKVSCKASGGTFSDYAISWVRQAPGQGLEWMGRIIPILGVADYAQKFQGRVTITADKSTRTAYMELSSLRSEDTAVYYCARNWADAFDIWGQGTMVTVSS VL: DIQLTQSPSSLSASVGDRVTITCRASQGISSVLAWYQQKPGKAPKLLIYDASSLESGVPSRFSGSGSGTDFTLTISSLQPEDFATYYCQQFDSSITFGQGTKLEIK
111 | 107 | 100 | 110 | 86 | 91.3 | 91 | 107 | 52.1 | 92 | 72.5 | 26.5 | 104 | 114 | 94.8 | 69.7 | 79.2 | 21.6 | 89.8 | 93.8 | Mean % WT Binding (human CD33 W22Y): 86.1 % WT binding; Mean % WT Binding (human CD33 Q24S): 96.8 % WT binding; Mean % WT Binding (human CD33 F44H): 84.9 % WT binding; Mean % WT Binding (human CD33 Q24I): 86.6 % WT binding; Mean % WT Binding (human CD33 N20Q): 99.4 % WT binding; Mean % WT Binding (human CD33 P19L): 101 % WT binding; Mean % WT Binding (human CD33 P46L): 96.3 % WT binding; Mean % WT Binding (human CD33 F21H): 123 % WT binding; Mean % WT Binding (human CD33 W22E): 99.4 % WT binding; Mean % WT Binding (human CD33 N20P): 98.5 % WT binding; Mean % WT Binding (human CD33 W22L): 108 % WT binding; Mean % WT Binding (human CD33 W22P): 104 % WT binding; Mean % WT Binding (human CD33 I47T): 82.4 % WT binding; Mean % WT Binding (human CD33 F44T): 97.1 % WT binding; Mean % WT Binding (human CD33 N20E): 100 % WT binding; Mean % WT Binding (human CD33 P46F): 42.4 % WT binding; Mean % WT Binding (human CD33 F21S): 118 % WT binding | Refmab #4 (antibody, human IgG1, V domains shown, Tested in IgG format; human IgG1 Fc silent (PG-LALA)) VH: QVQLVQSGAEVKKPGESVKVSCKASGYTFTNYGMNWVKQAPGQGLEWMGWINTYTGEPTYADKFQGRVTMTTDTSTSTAYMEIRNLGGDDTAVYYCARWSWSDGYYVYFDYWGQGTSVTVSS VL: DIVMTQSPDSLTVSLGERTTINCKSSQSVLDSSTNKNSLAWYQQKPGQPPKLLLSWASTRESGIPDRFSGSGSGTDFTLTIDSPQPEDSATYYCQQSAHFPITFGQGTRLEIK
12.5 | 3.5 | 111 | 0.6 | 103 | 4.6 | 1.8 | 35.3 | 0.7 | 1.8 | 107 | 0.8 | 2 | 1 | 0.6 | 0.8 | 4 | 18.6 | 9.4 | 11.4 | Mean % WT Binding (human CD33 W22Y): 11.5 % WT binding; Mean % WT Binding (human CD33 Q24S): 5.3 % WT binding; Mean % WT Binding (human CD33 F44H): 91.2 % WT binding; Mean % WT Binding (human CD33 Q24I): 61.3 % WT binding; Mean % WT Binding (human CD33 N20Q): 3.4 % WT binding; Mean % WT Binding (human CD33 P19L): 117 % WT binding; Mean % WT Binding (human CD33 P46L): 0.7 % WT binding; Mean % WT Binding (human CD33 F21H): 1.4 % WT binding; Mean % WT Binding (human CD33 W22E): 1.4 % WT binding; Mean % WT Binding (human CD33 N20P): 1.7 % WT binding; Mean % WT Binding (human CD33 W22L): 1.5 % WT binding; Mean % WT Binding (human CD33 W22P): 0.5 % WT binding; Mean % WT Binding (human CD33 I47T): 72.4 % WT binding; Mean % WT Binding (human CD33 F44T): 83.3 % WT binding; Mean % WT Binding (human CD33 N20E): 0.5 % WT binding; Mean % WT Binding (human CD33 P46F): 0.2 % WT binding; Mean % WT Binding (human CD33 F21S): 3.4 % WT binding | Refmab #3 (antibody, human IgG1, V domains shown, Tested in IgG format; human IgG1 Fc silent (PG-LALA)) VH: QVQLVQSGAEVKKPGSSVKVSCKASGYTFTDYNMHWVRQAPGQGLEWIGYIYPYNGGTGYNQKFKSKATITADESTNTAYMELSSLRSEDTAVYYCARGRPAMDYWGQGTLVTVSS VL: DIQMTQSPSSLSASVGDRVTITCRASESVDNYGISFMNWFQQKPGKAPKLLIYAASNQGSGVPSRFSGSGSGTDFTLTISSLQPDDFATYYCQQSKEVPWTFGQGTKVEIK
99.5 | 21.4 | 111 | 0.6 | 106 | 0.7 | 38.2 | 86.5 | 0.6 | 5.5 | 105 | 0.9 | 37.1 | 4.7 | 2.6 | 17.1 | 80.3 | 14.6 | 78.5 | 79.8 | Mean % WT Binding (human CD33 W22Y): 98 % WT binding; Mean % WT Binding (human CD33 Q24S): 60.2 % WT binding; Mean % WT Binding (human CD33 F44H): 97.6 % WT binding; Mean % WT Binding (human CD33 Q24I): 80 % WT binding; Mean % WT Binding (human CD33 N20Q): 2.8 % WT binding; Mean % WT Binding (human CD33 P19L): 91.6 % WT binding; Mean % WT Binding (human CD33 P46L): 28.9 % WT binding; Mean % WT Binding (human CD33 F21H): 20.6 % WT binding; Mean % WT Binding (human CD33 W22E): 5 % WT binding; Mean % WT Binding (human CD33 N20P): 2.9 % WT binding; Mean % WT Binding (human CD33 W22L): 45.8 % WT binding; Mean % WT Binding (human CD33 W22P): 2.7 % WT binding; Mean % WT Binding (human CD33 I47T): 97.2 % WT binding; Mean % WT Binding (human CD33 F44T): 107 % WT binding; Mean % WT Binding (human CD33 N20E): 0.3 % WT binding; Mean % WT Binding (human CD33 P46F): 1 % WT binding; Mean % WT Binding (human CD33 F21S): 6.4 % WT binding | Refmab #1 (antibody, human IgG1, V domains shown, Tested in IgG format; human IgG1 (Absolute Antibody hP67.6, Cat. No. Ab00283-10.0); also called hP67.6) VH: EVQLVQSGAEVKKPGSSVKVSCKASGYTITDSNIHWVRQAPGQSLEWIGYIYPYNGGTDYNQKFKNRATLTVDNPTNTAYMELSSLRSEDTAFYYCVNGNPWLAYWGQGTLVTVSS VL: DIQLTQSPSTLSASVGDRVTITCRASESLDNYGIRFLTWFQQKPGKAPKLLMYAASNQGSGVPSRFSGSGSGTEFTLTISSLQPDDFATYYCQQTKEVPWSFGQGTKVEVK

— patent publication US20260242735A1 (UNIVERSIT T BASEL, published 2026)
